Measurements: article PMC9810080 (Biochemistry, 2022)

How the values were obtained:
Experiment in all cases: ITC
[1] = molecular target: T1, CaM C-lobe fragment (residues 80–149) (UniProt P0DP23 80-149)
[2] = molecular target: T2, CaM N-lobe fragment (residues 1–80) (UniProt P0DP23 1-80)
[3] = molecular target: T1, CaM C-lobe fragment (residues 80–149); remark: listed apart in the source
[4] = molecular target: T2, CaM N-lobe fragment (residues 1–80); remark: listed apart in the source
[5] = molecular target: Calmodulin (CaM), full-length (UniProt P0DP23 1-149)

Binder | Kd [1] [µM] | Kd [2] [µM] | Ka [3] [M⁻¹] | Ka [4] [M⁻¹] | Kd [5] [µM]
NDRLQELVKLFKERTEKVKEKLIDP (peptide, UniProt Q14028 565-589, looked up) [CaM1 peptide, CNGB1 residues 565–589] | 29 ± 5 | 5.7 ± 1 | 34000 | 180000 | 
GGKGAKGGKLAHLRARLKELAALEAAAK (peptide, UniProt Q14028 1120-1147, looked up) [CaM2 peptide, CNGB1 residues 1120–1147] | 0.1 ± 0.02 |  | 9.8e+06 | < 18000 | 25 ± 4
NDRLQELVKLEKERTEKVKEKLIDP (peptide, UniProt Q14028 565-589, looked up) [CaM1^F575E peptide (CNGB1 residues 565–589, F575E)] |  | > 50 |  | < 20000 | 
GGKGAKGGKLAHERARLKELAALEAAAK (peptide, UniProt Q14028 1120-1147, looked up) [CaM2^L1132E peptide (CNGB1 residues 1120–1147, L1132E)] | 54 ± 5 |  | 18000 |  | 
GGKGAKGGKLAHLRAREKELAALEAAAK (peptide, UniProt Q14028 1120-1147, looked up) [CaM2^L1136E peptide (CNGB1 residues 1120–1147, L1136E)] | 84 ± 10 |  | 12000 |  | 
